In the supplement of paper PMC9170038:

What was measured:
MS2 coat protein [1] = assay: apparent KD of MS2 coat protein; designed switch direction (-1 OFF switch, 1 ON switch): -1; higher = weaker reporter binding; conditions: Eterna round: R98
Procedure: (§1)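 RNA-MaP: designed FMN/MS2 RNA switches (84 nt design region) are transcribed on-chip within common flanks and titrated with SNAP-549-labelled MS2 coat protein (about 1-3000 nM) in 100 mM Tris pH 7.5, 80 mM KCl, 4 mM MgCl2, without or with 200 uM FMN. Median apparent KD per design; activation ratio = KD,OFF / KD,ON.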

MS2 coat protein [2] = assay: apparent KD of MS2 coat protein; designed switch direction (-1 OFF switch, 1 ON switch): 1; higher = weaker reporter binding; conditions: Eterna round: R98
Procedure: as §1

| Sequence | apparent KD of MS2 coat protein (MS2 coat protein [1]; input ligand: FMN 200 uM) [nM] | apparent KD of MS2 coat protein (MS2 coat protein [1]; input ligand: none) [nM] | apparent KD of MS2 coat protein (MS2 coat protein [2]; input ligand: FMN 200 uM) [nM] | apparent KD of MS2 coat protein (MS2 coat protein [2]; input ligand: none) [nM] |
| --- | --- | --- | --- | --- |
| AACAGCGUAGAUAAUAAUGAUUACAUGAGGAUCACCCAUGUAUAGGAUAUGCAGUGGAAUACACUGCAGAAGGAUACAUCGCUG [Exclusion NG 3/18-B1] | 33 | 17.5 |  |  |
| AAUAUAAAAGAGCUGGAUAACUCAACAUGAGGAUCACCCAUGUAGGAUAUCAGCACGAUAAGUGCUGAGAAGGACAACCAGCUC [Denovo 69] | 16.2 | 14.8 |  |  |
| AGCUGUGGCCGAGGAUAUCUAUCUUCAAUAACCGAAAUAUAAUCGGACAUGAGGAUCACCCAUGUAGAGAAGGCGGUCUCAGCA [Eli xng2 2.033] | 100 | 37.7 |  |  |
| AUGACAGGCAAAGCGCAACGGCGAACAUGAGGAUCACCCAUGUAGGAUAUGCUACACAAAGUGUAGCAGAAGGACAUACGACGA [Ex NG2 #82] | 88.6 | 41.2 |  |  |
| AUGCUUCACACAGGAUAUACAUGAGGAUCACCCAUGUGUGGGCGGUAGCUGACACGAGCUACCGGGUAGAAGGGUGUGAAGCAU [xclu_NG2_cac21] | 127 | 32.6 |  |  |
| CCAUACAUGAGGAUCACCCAUGACAUGAGGAUCACCCAUGUGCAGGAUAUACGUGAUAUAAUAAAGUAGAAGGGCAGACCAAAA [LRO002_Exclusion NG 3] | 87.4 | 74.2 |  |  |
| GCACUGGAUGUAGGAUAUCAGGACGAUAAGUCCUGAGAAGGACAUGAGGAUCACCCAUGUGAAUAAAACCAGUGCAAUAAUAUA [Denovo Exng1 22] | 30.9 | 13.4 |  |  |
| GGUCCAAUAUGAGGAUAUAGCACCUUAUUGGUGCUAGAAGGCGUGUCGGUAGACAUGAGGAUCACCCAUGUAUUACAAUGGACC [SameState #28 NG1] |  |  | 25.6 | 88.6 |
| GUAGCAUACCGAGGAUAUUCAGAGAAUAAAUAAACAUGAGGAUCACCCAUGUGGCGAAAGCCUAGGGAGAAGGCGGAAUGCUAC [salish99_SSNG2_r2_208] |  |  | 25.3 | 81.9 |
| GUAGCAUACCGAGGAUAUUCAUAUAAUAAAUAAACAUGAGGAUCACCCAUGUGGCGAAAGCCUAGGGAGAAGGCGGAAUGCUAA [salish99_SSNG2_r2_113] |  |  | 23.6 | 201 |
| GUAGCAUACCGAGGAUAUUCAUAUAAUAAAUAAACAUGAGGAUCACCCAUGUGGCGAAAGCCUAGGGAGAAGGCGGAAUGCUAG [salish99_SSNG2_r2_003] |  |  | 22.1 | 248 |
| GUAGCAUACCGAGGAUAUUCAUAUAAUAAAUAAACAUGAGGAUCACCCAUGUGGCGAAAGCCUAGGGAGAAGGCGGAAUGCUAU [salish99_SSNG2_r2_110] |  |  | 24.2 | 171 |
| GUCGAAUUCUUAGGAUAUCGAGUGGAUAACACUCGAGAAGGAAGAUAUACCUGAGGAUCACCCAGGUUAAACUGAACGACAAUA [Same State NG1 - A3C, U17G Submission 7D] |  |  | 17.5 | 18.5 |
| UAUAUAAUAAGAGCUGGAACUCAAACAUGAGGAUCACCCAUGUAGGAUAUCAGCACGAUAAGUGCUGAGAAGGACAACCAGCUC [Denovo 75] | 21.2 | 17.6 |  |  |
| UAUAUAAUUAAGAGCUGGACCAAAACAUGAGGAUCACCCAUGUAGGAUAUCAGCACGAUAAGUGCUGAGAAGGACUACCAGCUC [Denovo 83] | 22.4 | 18.5 |  |  |
| UCACAGUGUCGUUAUCCGUAGCGAACAUGAGGAUCACCCAUGUAGGAUAUGUUAUUAAACUAAUAACAGAAGGACGUUAGUCGG [Ex NG3 #21] | 94.3 | 36 |  |  |
| UCACUCACGUCAGGAUAUGGAUCGGAAAACGAUCCAGAAGGGACCUGCAAACCUGAGGAUCACCCUGGUUCCAAUAACGAGUGA [SameSame 10 - Jieux - Same State NG 1] |  |  | 133 | 222 |
| UCAUACAUGAGGAUCUCCCAUGACAUGAGGAUCACCCAUGUGCAGGAUAUACGUGAUAUAAUAUAGUAGAAGGGCAGACUAUAU [LRO008_Exclusion NG 3] | 192 | 157 |  |  |
| UGACGGCACACAGGAUAUAGUGCACAAAGUGUACUAGAAGGGUGAGCACUCGUCCGGGCACAUGAGGAUCACCCAUGUCGUCGA [Onusar] |  |  | 1040 | 133 |
| UGCACAUGAGGAUCACCCAUGUAUUGUUCGGUUUAUAGUAGUGAGGAUAUGCAAAGUAUAAGGAAGCAGAAGGCACAGGAUUCA [JR_SSNG3_Sub045] |  |  | 19.5 | 26.3 |
| UGGACCAAUACAGGAUAUGGUGACGCACAUGAGGAUCACCCAUGUCCGCAGCGUGCUCAGCACGCCCAGAAGGGUAUUGAUUCA [Tereriesti] |  |  | 74.5 | 671 |
| UGUUGUUACGCAGGAUAUUGCCAACAGGCAGUAGGAUAUCCGAAAGGAGAAGGACCGCCAACAGGCGAGAAGGGCGGGUUAACA [pwkr exNG2 2xF7 2FMN.10 scored 83] | 35 | 57.9 |  |  |
| UUCUGUGCCCAAAGUUUAAGCACAUGAGGAUCACCCAUGUGAAAGGAUAUGUGGCGUGUAACGUUAUAGAAGGUUCACAAUAAA [Edorcetila] | 74.9 | 33.1 |  |  |
| UUGACGUCGGAUACAUGAGGAUCACCCAUGUGCCCGCGGGCACAGGAUAUCGAACAUAGUAUUGACGAGAAGGGUGACAGAGAG [Anxeenerce] |  |  | 664 | 404 |
| UUUACAUGAGGAUCACCCAUGUAUGUCACCCAUGUGUGUAAUCAGGAUAUGAAAUAAAUAAUAAAUUAGAAGGGAUAACAUGAG [Attempt 1] |  |  | 72.9 | 60.3 |
| UUUACAUGAGGAUCACCCAUGUUUAGAAAGUUAAUUAUAAGUGAGGAUAUAUAAUUUAUAAAAUAGUAGAAGGCACUGGGUAUU [JR_SSNG3_Sub079] |  |  | 27.2 | 32 |
